Experiment [1] deals with T1, CD3-specific binding domain C7v14.
T1 construct: Used as analyte in SPR; also called hC22_88B02v14
T1 chain: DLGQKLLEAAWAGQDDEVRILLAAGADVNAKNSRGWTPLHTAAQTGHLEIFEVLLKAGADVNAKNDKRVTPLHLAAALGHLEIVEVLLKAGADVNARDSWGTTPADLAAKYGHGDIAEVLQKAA
Description: SPR validation of down-tuned binders.

For experiment [2], the target named is T2, human EGFR on tumor cells (human, UniProt P00533 25-1210). The experiment is described as follows: cell-based or functional assay.
For experiment [3], the target named is T2, human EGFR on tumor cells. Description: flow cytometry on HCT 116 tumor cells, detection with anti-DARPin antibodies. On the procedure:
(§1) The determination of CD3 binding was performed with human CD3 on Jurkat cells, and binding to hEGFR on cells with HCT116 tumor cells, using Flow Cytometer Attune Nxt. A titration of prodrug DARPin molecules was incubated with 200′000 cells per well (for both Jurkat and HCT116 cells) for 30 min at 4° C. After washing, CD3 binding of DARPin® molecule was detected by 1:1000-diluted anti-DARPin® Antibody-Mix (1 h incubation at 4° C.) with the corresponding secondary antibody anti-rabbit IgG Alexa Fluor 488 (30 min incubation at 4° C.), which was added after washing off excess anti-DARPin Antibodies. Cells were subsequently washed and stained for livedead (aqua, 1:1000, thermofisher) and resuspended in Cytofix fixation buffer (BD Biosciences). Median of mean fluorescence intensities of Alexa Fluor 488 binding on live cells were measured by Flow Cytometry and data was plotted using GraphPad Prism 8.
(In general: In flow cytometry, cells or beads pass a laser one at a time.)

Experiment [4] addresses T3, human CD3 on T cells (human, UniProt P07766 23-207; P09693 23-182; P04234 22-171).
T3 construct: whole, on cells; also called human CD3 on Jurkat wt cells; CD3 on pan T-cells
The experiment is described as follows: flow cytometry on Jurkat cells, detection with anti-DARPin antibodies and anti-rabbit IgG Alexa Fluor 488, MFI [column T-cell binding]. On the procedure:
as §1

Experiment [5] addresses T3, human CD3 on T cells. Description: cell-based or functional assay.

T3 sequence (P07766 23-207, chain 1 of 3): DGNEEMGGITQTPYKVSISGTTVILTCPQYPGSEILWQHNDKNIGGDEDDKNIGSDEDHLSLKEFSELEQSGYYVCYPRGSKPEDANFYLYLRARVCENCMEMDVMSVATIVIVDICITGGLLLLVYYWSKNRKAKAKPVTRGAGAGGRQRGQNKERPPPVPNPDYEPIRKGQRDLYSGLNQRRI
T3 sequence (P09693 23-182, chain 2 of 3): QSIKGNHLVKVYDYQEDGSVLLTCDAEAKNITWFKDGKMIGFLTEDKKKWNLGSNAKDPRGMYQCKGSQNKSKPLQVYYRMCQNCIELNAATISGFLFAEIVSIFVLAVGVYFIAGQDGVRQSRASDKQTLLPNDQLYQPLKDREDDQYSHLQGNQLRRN
T3 sequence (P04234 22-171, chain 3 of 3): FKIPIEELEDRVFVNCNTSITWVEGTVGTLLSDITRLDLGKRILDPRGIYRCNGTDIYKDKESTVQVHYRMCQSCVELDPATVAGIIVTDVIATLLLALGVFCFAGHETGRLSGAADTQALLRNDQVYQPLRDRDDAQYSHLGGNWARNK

B1: Binder #5 (designed binder)
chain: MRGSHHHHHHGSDLGKKLLQAARAGQLDEVRELLKAGADVNAKDAKGLTPLHLAAYHGHLEIVEVLLKAGADVNAKDVYGWTPLHIAAASGHLEIVEVLLKAGADVNAKDWLGITPLHLAASHGHLEIVEVLLKAGADVNAQDKSGKTPADLAARAGHQDIAEVLQKAA
notes: N-terminal His-tag; also called 06E05v30
B1: in experiment [1], the binding result was “binds”.

B2: Binder #12 (designed binder)
chain: MRGSHHHHHHGSDLGKKLLQAARAGQLDEVRELLKAGADVNAKDAKGLTPLHLAAYHGHLEIVEVLLKAGADVNAKDVYGWTPLHIAAASGHLEIVEVLLKAGADVNAKDWLGATPLHLAASAGHLEIVEVLLKAGADVNAQDKSGKTPADLAARAGHQDIAEVLQKAA
notes: N-terminal His-tag; also called 06E05v37
Take B2: the binding result in experiment [1] is on record as “binds”.

B3: Binder #8 (designed binder)
chain: MRGSHHHHHHGSDLGKKLLQAARAGQLDEVRELLKAGADVNAKDAKGLTPLHLAAYHGHLEIVEVLLKAGADVNAKDVYGWTPLHIAAASGHLEIVEVLLKAGADVNAKDWLGITPLHLAASAGHLEIVEVLLKAGADVNAQDKSGKTPADLAARAGHQDIAEVLQKAA
notes: N-terminal His-tag; also called 06E05v33
Consider B3, for which the binding result in experiment [1] is recorded as “binds”.

B4: Binder #10 (designed binder)
chain: MRGSHHHHHHGSDLGKKLLQAARAGQLDEVRELLKAGADVNAKDAKGLTPLHLAAYHGHLEIVEVLLKAGADVNAKDVAGWTPLHIAAASGHLEIVEVLLKAGADVNAKDWLGATPLHLAASHGHLEIVEVLLKAGADVNAQDKSGKTPADLAARAGHQDIAEVLQKAA
notes: N-terminal His-tag; also called 06E05v35
As to B4, the binding result in experiment [1] is “binds”.

B5: Binder #11 (designed binder)
chain: MRGSHHHHHHGSDLGKKLLQAARAGQLDEVRELLKAGADVNAKDAKGLTPLHLAAYHGHLEIVEVLLKAGADVNAKDVYGWTPLHIAAASGHLEIVEVLLKAGADVNAKDALGATPLHLAASHGHLEIVEVLLKAGADVNAQDKSGKTPADLAARAGHQDIAEVLQKAA
notes: N-terminal His-tag; also called 06E05v36
On to B5, for which, in experiment [1], the binding result is reported as “binds”.

B6: Binder #9 (designed binder)
chain: MRGSHHHHHHGSDLGKKLLQAARAGQLDEVRELLKAGADVNAKDAKGLTPLHLAAYHGHLEIVEVLLKAGADVNAKDVYGWTPLHIAAASGHLEIVEVLLKAGADVNAKDWLGATPLHLAASHGHLEIVEVLLKAGADVNAQDKSGKTPADLAARAGHQDIAEVLQKAA
notes: N-terminal His-tag; also called 06E05v34
Regarding B6, in experiment [1], the binding result was “binds”.

B7: Binder #7 (designed binder)
chain: MRGSHHHHHHGSDLGKKLLQAARAGQLDEVRELLKAGADVNAKDAKGLTPLHLAAYHGHLEIVEVLLKAGADVNAKDVYGWTPLHIAAASGHLEIVEVLLKAGADVNAKDALGITPLHLAASHGHLEIVEVLLKAGADVNAQDKSGKTPADLAARAGHQDIAEVLQKAA
notes: N-terminal His-tag; also called 06E05v32
Consider B7, for which the binding result in experiment [1] is “binds”.

B8: Binder #6 (designed binder)
chain: MRGSHHHHHHGSDLGKKLLQAARAGQLDEVRELLKAGADVNAKDAKGLTPLHLAAYHGHLEIVEVLLKAGADVNAKDVAGWTPLHIAAASGHLEIVEVLLKAGADVNAKDWLGITPLHLAASHGHLEIVEVLLKAGADVNAQDKSGKTPADLAARAGHQDIAEVLQKAA
notes: N-terminal His-tag; also called 06E05v31
Take B8: in experiment [1], the binding result is listed as “binds”.

B9: Active TCE EGFR-C7v14-6His (designed binder)
chain: MGSDLGYKLLRAAFHGQDDEVRILLAAGADVNAKDLIGQTPLHNAAWVGHLEIVEVLLKAGADVNAKDYYGNTPLHLAAHDGHLEIVEVLLKAGADVNAQDTWGETPADLATNAGHEDIAEVLQKAAGSPTPTPTTPTPTPTTPTPTPTGSDLGQKLLEAAWAGQDDEVRILLAAGADVNAKNSRGWTPLHTAAQTGHLEIFEVLLKAGADVNAKNDKRVTPLHLAAALGHLEIVEVLLKAGADVNARDSWGTTPADLAAKYGHGDIAEVLQKAAGSHHHHHH
With B9, in experiment [2], the “T-cell activation EC50 (CD25 on CD8+ T cells), EGFR+ HCT 116 tumor cells and pan T-cells” value amounted to 0.0016 nM; the “T-cell activation EC50 (CD25 on CD8+ T cells), EGFR+++ A431 tumor cells and pan T-cells” value is 0.0037 nM.

B10: CD3-PDD CL EGFR-C7v119-[Linker#2]-06E05v07-6His (designed binder)
chain: MGSDLGYKLLRAAFHGQDDEVRILLAAGADVNAKDLIGQTPLHNAAWVGHLEIVEVLLKAGADVNAKDYYGNTPLHLAAHDGHLEIVEVLLKAGADVNAQDTWGETPADLATNAGHEDIAEVLQKAAGSPTPTPTTPTPTPTTPTPTPTGSDLGQKLLEAAWAGQDDEVRELLKAGADVNAKNSRGWTPLHTAAQTGHLEIFEVLLKAGADVNAKDDKGVTPLHLAAALGHLEIVEVLLKAGADVNAQDSWGTTPADLAAKYGHEDIAEVLQKAASGGGGGPQASTGRSGGGGGGSDLGKKLLQAARAGQLDEVRELLKAGADVNAKDAKGLTPLHLAAYHGHLEIVEVLLKAGADVNAKDVYGWTPLHIAAASGHLEIVEVLLKAGADVNAKDWLGWTPLHLAASAGHLEIVEVLLKAGADVNAQDKSGKTPADLAARAGHQDIAEVLQKAAGSHHHHHH
A word on the EC50: it is the concentration needed to bring the measured effect to its halfway point. High values mean lower potency in that assay, low ones higher potency in that assay. B10: the EC50 in experiment [3] was 0.353 nM. Besides, the binding result with human CD3 on T cells [4] was “no binding (tested: 100000 pM)”.

B11: CD3-PDD CL EGFR-C7v122-[Linker#2]-06E05v07-6His (designed binder)
chain: MGSDLGYKLLRAAFHGQDDEVRILLAAGADVNAKDLIGQTPLHNAAWVGHLEIVEVLLKAGADVNAKDYYGNTPLHLAAHDGHLEIVEVLLKAGADVNAQDTWGETPADLATNAGHEDIAEVLQKAAGSPTPTPTTPTPTPTTPTPTPTGSDLGQKLLEAAWAGQDDEVRELLKAGADVNAKNSRGWTPLHTAAQTGHLEIFEVLLKAGADVNAKNDKRVTPLHLAAALGHLEIVEVLLKAGADVNARDSWGTTPADLAAKYGHQDIAEVLQKAASGGGGGPQASTGRSGGGGGGSDLGKKLLQAARAGQLDEVRELLKAGADVNAKDAKGLTPLHLAAYHGHLEIVEVLLKAGADVNAKDVYGWTPLHIAAASGHLEIVEVLLKAGADVNAKDWLGWTPLHLAASAGHLEIVEVLLKAGADVNAQDKSGKTPADLAARAGHQDIAEVLQKAAGSHHHHHH
In experiment [3], B11 came in with an EC50 of 0.41 nM. In addition, in the experiment with human CD3 on T cells [4], the binding result is on record as “no binding”.

B12: CD3-PDD NCL EGFR-C7v119-[NCL1]-06E05v05-6His (designed binder)
chain: MGSDLGYKLLRAAFHGQDDEVRILLAAGADVNAKDLIGQTPLHNAAWVGHLEIVEVLLKAGADVNAKDYYGNTPLHLAAHDGHLEIVEVLLKAGADVNAQDTWGETPADLATNAGHEDIAEVLQKAAGSPTPTPTTPTPTPTTPTPTPTGSDLGQKLLEAAWAGQDDEVRELLKAGADVNAKNSRGWTPLHTAAQTGHLEIFEVLLKAGADVNAKDDKGVTPLHLAAALGHLEIVEVLLKAGADVNAQDSWGTTPADLAAKYGHEDIAEVLQKAASGPTPTPTTPTPTPTTPTPTPTGSDLGKKLLQAARAGQLDEVRELLKAGADVNAKDAKGLTPLHLAAYHGHLEIVEVLLKAGADVNAKDVYGWTPLHIAAASGHLEIVEVLLKAGADVNAKDALGWTPLHLAASHGHLEIVEVLLKAGADVNAQDKSGKTPADLAARAGHQDIAEVLQKAAGSHHHHHH
As to B12, the “tumor cell killing EC50 (LDH release), HCT 116 tumor cells and pan T-cells” value with human CD3 on T cells [5] was 0.0821 nM.

B13: CD3-PDD NCL EGFR-C7v122-[NCL1]-06E05v05-6His (designed binder)
chain: MGSDLGYKLLRAAFHGQDDEVRILLAAGADVNAKDLIGQTPLHNAAWVGHLEIVEVLLKAGADVNAKDYYGNTPLHLAAHDGHLEIVEVLLKAGADVNAQDTWGETPADLATNAGHEDIAEVLQKAAGSPTPTPTTPTPTPTTPTPTPTGSDLGQKLLEAAWAGQDDEVRELLKAGADVNAKNSRGWTPLHTAAQTGHLEIFEVLLKAGADVNAKNDKRVTPLHLAAALGHLEIVEVLLKAGADVNARDSWGTTPADLAAKYGHQDIAEVLQKAASGPTPTPTTPTPTPTTPTPTPTGSDLGKKLLQAARAGQLDEVRELLKAGADVNAKDAKGLTPLHLAAYHGHLEIVEVLLKAGADVNAKDVYGWTPLHIAAASGHLEIVEVLLKAGADVNAKDALGWTPLHLAASHGHLEIVEVLLKAGADVNAQDKSGKTPADLAARAGHQDIAEVLQKAAGSHHHHHH
Regarding B13, the “tumor cell killing EC50 (LDH release), HCT 116 tumor cells and pan T-cells” value in the experiment with human CD3 on T cells [5] was over 0.1 nM.

B14: CD3-PDD NCL EGFR-C7v119-[NCL1]-06E05v07-6His (designed binder)
chain: MGSDLGYKLLRAAFHGQDDEVRILLAAGADVNAKDLIGQTPLHNAAWVGHLEIVEVLLKAGADVNAKDYYGNTPLHLAAHDGHLEIVEVLLKAGADVNAQDTWGETPADLATNAGHEDIAEVLQKAAGSPTPTPTTPTPTPTTPTPTPTGSDLGQKLLEAAWAGQDDEVRELLKAGADVNAKNSRGWTPLHTAAQTGHLEIFEVLLKAGADVNAKDDKGVTPLHLAAALGHLEIVEVLLKAGADVNAQDSWGTTPADLAAKYGHEDIAEVLQKAASGPTPTPTTPTPTPTTPTPTPTGSDLGKKLLQAARAGQLDEVRELLKAGADVNAKDAKGLTPLHLAAYHGHLEIVEVLLKAGADVNAKDVYGWTPLHIAAASGHLEIVEVLLKAGADVNAKDWLGWTPLHLAASAGHLEIVEVLLKAGADVNAQDKSGKTPADLAARAGHQDIAEVLQKAAGSHHHHHH
B14: the half-maximal effective concentration (EC50) in experiment [3] came out at 0.503 nM. Also, the binding result in the experiment with human CD3 on T cells [4] was “no binding (tested: 100000 pM)”.
